According to patent publication US20250122306A1 (SUTRO BIOPHARMA, published 2025):
Numbering of substitutions follows the chain as printed. Each block holds one binder with its values, some of them ahead of it.

Experiments:
[1] = target: human tissue factor on cells (human, UniProt P13726 33-295); assay: cell-based or functional assay
[2] = target: T1, cynomolgus tissue factor (cynomolgus TF, Sino Bio #90885-C08H) (cynomolgus monkey, UniProt P13726 33-251 (human entry)); assay: Biacore SPR, single-point off-rate (100 nM antigen), antibody captured on anti-Fc
T1 construct: bought recombinant antigen; also called cyno TF
T1 chain: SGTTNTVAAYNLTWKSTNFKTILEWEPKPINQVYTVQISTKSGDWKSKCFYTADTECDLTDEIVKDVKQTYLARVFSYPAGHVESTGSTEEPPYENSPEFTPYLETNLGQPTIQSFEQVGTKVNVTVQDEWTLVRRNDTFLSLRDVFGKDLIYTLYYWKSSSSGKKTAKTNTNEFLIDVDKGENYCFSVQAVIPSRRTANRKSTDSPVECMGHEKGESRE
Method: (§1) Anti-Fc polyclonal antibodies were immobilized onto a CM4 chip (Cytiva #BR100534) using amine coupling chemistry (Human Antibody Capture Kit, Cytiva #BR100839). The immobilization steps were carried out at a flow rate of 25 μL/min in 1×HBS-EP+buffer (Cytiva #BR100669). The sensor surfaces were activated for 7 min with a mixture of N-hydroxysuccinimide (NHS, 0.05 M) and 1-ethyl-3-(3-dimethylaminopropyl)-carbodiimide (EDC, 0.2 M). The anti-Fc polyclonal antibodies were injected over all 4 flow cells at a concentration of 25 μg/mL in 10 mM sodium acetate, pH 4.5, for 7 min. Ethanolamine (1 M, pH 8.5) was injected for 7 min to block any remaining activated groups.
(§2) Off-rate and kinetic binding experiments were performed at 25° C. using 1×HBS-EP+buffer. Antibodies were injected over the anti-Fc surface at a concentration of 3 μg/mL for 12 seconds at a flow rate of 10 μL/min on flow cells 2, 3 and 4, followed by a buffer wash for 30 seconds at the same flow rate. Single point off-rate analysis was carried out using an antigen concentration of 100 nM. […] After capturing ligand (antibody) on the anti-Fc surface, the analyte (human TF, Lake Pharma; cynomolgus TF, Sino Bio #90885-C08H; mouse TF, R&D Systems #3178-PA) was bound for 180 seconds, followed by a 420 second dissociation phase at a flow rate of […]. Between each ligand capture and analyte binding cycle, regeneration was carried out using 2 injections of 10 mM glycine pH 2.0 for 30 seconds at 30 μL/min, followed by a 30 second buffer wash step.

[3] = target: T2, human tissue factor (human TF, Lake Pharma) (human, UniProt P13726 33-251, limits assumed); assay: as above
T2 construct: bought recombinant antigen; also called CD142
Method: as §1, §2

[4] = target: tissue factor reagent of the Tissue Factor Activity Assay Kit (Abcam #ab108906) (UniProt P13726 33-295, limits assumed); assay: cell-based or functional assay

B1: Conjugate 1: 2900-A02 Y180/F404-LP1 (antibody, human IgG1, kappa)
heavy: MEVQLVESGGGLVQPGGSLRLSCAASGFTISGYIIHWVRQAPGKGLEWVGYIDPSNGYTYYADSVKGRFTISADTSKNTAYLQMNSLRAEDTAVYYCARDDQSLSSPFDYWGQGTLVTVSSASTKGPSVFPLAPSSKSTSGGTAALGCLVKDYFPEPVTVSWNSGALTSGVHTFPAVLQSSGLSLSSVVTVPSSSLGTQTYICNVNHKPSNTKVDKKVEPKSCDKTHTCPPCPAPELLGGPSVFLFPPKPKDTLMISRTPEVTCVVVDVSHEDPEVKFNWYVDGVEVHNAKTKPREEQYNSTYRVVSVLTVLHQDWLNGKEYKCKVSNKALPAPIEKTISKAKGQPREPQVYTLPPSREEMTKNQVSLTCLVKGFYPSDIAVEWESNGQPENNYKTTPPVLDSDGSFLYSKLTVDKSRWQQGNVFSCSVMHEALHNHYTQKSLSLSPGK
light: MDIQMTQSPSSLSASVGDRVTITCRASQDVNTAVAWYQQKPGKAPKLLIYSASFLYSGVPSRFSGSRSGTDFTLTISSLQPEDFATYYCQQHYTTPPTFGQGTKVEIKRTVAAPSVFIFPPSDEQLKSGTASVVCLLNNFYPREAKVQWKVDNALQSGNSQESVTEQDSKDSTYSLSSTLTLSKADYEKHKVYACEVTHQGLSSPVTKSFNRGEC
modifications: pAMF at Y180 and F404 (EU), each linked to LP1 (DBCO-Valcit-pAB-hemiasterlin)
cell killing EC50, HCC1954 (TF+++) [1]: 0.064 nM
cell killing EC50, HCC1954, with 0.5 uM unconjugated mAb 36 [1]: > 100 nM
cell killing EC50, NCI-H292 (TF++++) [1]: 0.055 nM
cell killing EC50, NCI-H1975 (TF++) [1]: ~25 nM
cell killing EC50, NCI-H1975, with 0.5 uM unconjugated mAb 36 [1]: > 100 nM
cell killing Span, HCC1954 (TF+++) [1]: 95%
cell killing Span, NCI-H292 (TF++++) [1]: 85%
cell killing Span, NCI-H1975 (TF++) [1]: 62%

B2: Conjugate 3: 2900-A02 Y180/F404/k42-LP1 (antibody, human IgG1, kappa)
heavy: B1 heavy
light: MDIQMTQSPSSLSASVGDRVTITCRASQDVNTAVAWYQQKPGAPKLLIYSASFLYSGVPSRFSGSRSGTDFTLTISSLQPEDFATYYCQQHYTTPPTFGQGTKVEIKRTVAAPSVFIFPPSDEQLKSGTASVVCLLNNFYPREAKVQWKVDNALQSGNSQESVTEQDSKDSTYSLSSTLTLSKADYEKHKVYACEVTHQGLSSPVTKSFNRGEC
modifications: pAMF at K42 linked to LP1; pAMF at Y180 and F404 (EU), each linked to LP1 (DBCO-Valcit-pAB-hemiasterlin)
cell killing EC50, HCC1954 (TF+++) [1]: 0.073 nM
cell killing EC50, HCC1954, with 0.5 uM unconjugated mAb 39 [1]: > 100 nM
cell killing EC50, NCI-H292 (TF++++) [1]: 0.048 nM
cell killing EC50, NCI-H292, with 0.5 uM unconjugated mAb 39 [1]: > 100 nM
cell killing EC50, NCI-H1975 (TF++) [1]: ~7 nM
cell killing EC50, NCI-H1975, with 0.5 uM unconjugated mAb 39 [1]: > 100 nM
cell killing Span, HCC1954 (TF+++) [1]: 93%
cell killing Span, NCI-H292 (TF++++) [1]: 82%
cell killing Span, NCI-H1975 (TF++) [1]: 68%

B3: Conjugate 5: 2900-A02 Y180/F404/k42/E161-LP1 (antibody, human IgG1, kappa)
heavy: B1 heavy
light: MDIQMTQSPSSLSASVGDRVTITCRASQDVNTAVAWYQQKPGAPKLLIYSASFLYSGVPSRFSGSRSGTDFTLTISSLQPEDFATYYCQQHYTTPPTFGQGTKVEIKRTVAAPSVFIFPPSDEQLKSGTASVVCLLNNFYPREAKVQWKVDNALQSGNSQSVTEQDSKDSTYSLSSTLTLSKADYEKHKVYACEVTHQGLSSPVTKSFNRGEC
modifications: pAMF at K42 and E161, each linked to LP1; pAMF at Y180 and F404 (EU), each linked to LP1 (DBCO-Valcit-pAB-hemiasterlin)
cell killing EC50, HCC1954 (TF+++) [1]: 0.08 nM
cell killing EC50, HCC1954, with 0.5 uM unconjugated mAb 38 [1]: > 100 nM
cell killing EC50, NCI-H292 (TF++++) [1]: 0.045 nM
cell killing EC50, NCI-H292, with 0.5 uM unconjugated mAb 38 [1]: > 100 nM
cell killing EC50, NCI-H1975 (TF++) [1]: ~4.4 nM
cell killing EC50, NCI-H1975, with 0.5 uM unconjugated mAb 38 [1]: > 100 nM
cell killing Span, HCC1954 (TF+++) [1]: 91%
cell killing Span, NCI-H292 (TF++++) [1]: 87%
cell killing Span, NCI-H1975 (TF++) [1]: 72%

B4: SRP2900-C01 (antibody, IgG1, V domains shown)
VH: EVQLVESGGGLVQPGGSLRLSCAASGFTIGSYWIHWVRQAPGKGLEWVGYIDPSNGYTYYADSVKGRFTISADTSKNTAYLQMNSLRAEDTAVYYCARADYYYVDEYWDYWGQGTLVTVSS
VL: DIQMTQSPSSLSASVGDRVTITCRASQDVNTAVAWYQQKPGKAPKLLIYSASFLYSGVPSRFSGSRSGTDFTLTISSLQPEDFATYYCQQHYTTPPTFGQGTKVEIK
koff [2]: 0.00118 s⁻¹
koff [3]: 0.00183 s⁻¹
FX conversion (% inhibition), 1000 nM antibody [4]: 16.4%

B5: SRP2900-A04 (antibody, IgG1, V domains shown)
VH: B4 VH with G30S, S31G, S54Y, Y57A, T78A, Y102F, V104I
VL: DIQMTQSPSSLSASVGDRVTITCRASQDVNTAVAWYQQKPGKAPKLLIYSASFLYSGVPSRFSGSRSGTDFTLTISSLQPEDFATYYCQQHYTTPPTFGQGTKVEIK
FX conversion (% inhibition), 1000 nM antibody [4]: 38.6%

B6: SRP2900-A07 (antibody, IgG1, V domains shown)
VH: B4 VH with G30S, S54Y, Y57A, A99S, Y107F, W108F
VL: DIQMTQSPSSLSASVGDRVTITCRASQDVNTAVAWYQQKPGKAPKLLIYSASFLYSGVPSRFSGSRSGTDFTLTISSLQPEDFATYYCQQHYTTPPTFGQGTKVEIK
FX conversion (% inhibition), 1000 nM antibody [4]: 28.4%

B7: SRP2900-A06 (antibody, IgG1, V domains shown)
VH: B4 VH with G30S, S54F, Y57A
VL: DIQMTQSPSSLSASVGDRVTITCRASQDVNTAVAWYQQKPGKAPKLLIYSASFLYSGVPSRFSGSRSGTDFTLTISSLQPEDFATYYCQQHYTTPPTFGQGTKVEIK
FX conversion (% inhibition), 1000 nM antibody [4]: 36.8%

B8: SRP2900-G04 (antibody, IgG1, V domains shown)
VH: EVQLVESGGGLVQPGGSLRLSCAASGFTTRDYVIHWVRQAPGKGLEWVGYIDPSNGYTYYADSVKGRFTISADTSKNTAYLQMNSLRAEDTAVYYCARDPQSLSSPFDYWGQGTLVTVSS
VL: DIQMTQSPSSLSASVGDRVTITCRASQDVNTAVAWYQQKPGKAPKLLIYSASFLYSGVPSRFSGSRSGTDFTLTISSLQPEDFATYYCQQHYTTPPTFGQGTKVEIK
FX conversion (% inhibition), 1000 nM antibody [4]: 31.2%

B9: SRP2900-G08 (antibody, IgG1, V domains shown)
VH: B8 VH with P14L, T29I, R30G, D31G, V33I, P100I, L103V, S105G, P106E
VL: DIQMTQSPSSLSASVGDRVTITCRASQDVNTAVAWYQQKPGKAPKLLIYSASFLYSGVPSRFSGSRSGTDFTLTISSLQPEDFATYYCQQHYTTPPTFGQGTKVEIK
FX conversion (% inhibition), 1000 nM antibody [4]: 38.9%

B12: SRP2900-G10 (antibody, IgG1, V domains shown)
VH: B8 VH with T29I, R30P, V33I, P100I, L103V, S105G, P106E
VL: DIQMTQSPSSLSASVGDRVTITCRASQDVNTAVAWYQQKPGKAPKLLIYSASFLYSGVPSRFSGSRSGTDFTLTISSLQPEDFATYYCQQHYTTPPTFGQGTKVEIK
FX conversion (% inhibition), 1000 nM antibody [4]: 48.7%

B15: SRP2900-G07 (antibody, IgG1, V domains shown)
VH: B8 VH with T29I, R30S, S104T
VL: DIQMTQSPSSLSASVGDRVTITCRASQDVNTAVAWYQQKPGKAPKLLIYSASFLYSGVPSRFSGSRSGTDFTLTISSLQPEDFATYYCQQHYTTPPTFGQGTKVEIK
FX conversion (% inhibition), 1000 nM antibody [4]: 38.3%

B17: SRP2900-G11 (antibody, IgG1, V domains shown)
VH: B8 VH with L18S, T29I, R30Y, V33I, Y59D, P100I, L103V, S105G, P106E
VL: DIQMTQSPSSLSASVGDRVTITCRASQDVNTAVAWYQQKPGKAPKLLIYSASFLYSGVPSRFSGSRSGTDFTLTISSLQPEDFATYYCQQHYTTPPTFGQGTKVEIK
FX conversion (% inhibition), 1000 nM antibody [4]: 40.9%

B18: SRP2900-G09 (antibody, IgG1, V domains shown)
VH: B8 VH with T29I, R30S, V33I, S104T
VL: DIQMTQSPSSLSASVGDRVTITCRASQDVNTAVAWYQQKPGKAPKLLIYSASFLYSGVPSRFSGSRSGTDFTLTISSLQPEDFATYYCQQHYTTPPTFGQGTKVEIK
FX conversion (% inhibition), 1000 nM antibody [4]: 30.4%

B20: SRP2900-G06 (antibody, IgG1, V domains shown)
VH: B8 VH with T29I, R30S, V33I, P100D
VL: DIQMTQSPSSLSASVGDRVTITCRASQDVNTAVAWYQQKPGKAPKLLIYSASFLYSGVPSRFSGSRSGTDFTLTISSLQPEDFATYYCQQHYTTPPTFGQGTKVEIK
FX conversion (% inhibition), 1000 nM antibody [4]: 21.4%

B22: Conjugate 6: 2900-A02 Y180/F241/F404/k42-LP1 (antibody, human IgG1, kappa)
heavy: MEVQLVESGGGLVQPGGSLRLSCAASGFTISGYIIHWVRQAPGKGLEWVGYIDPSNGYTYYADSVKGRFTISADTSKNTAYLQMNSLRAEDTAVYYCARDDQSLSSPFDYWGQGTLVTVSSASTKGPSVFPLAPSSKSTSGGTAALGCLVKDYFPEPVTVSWNSGALTSGVHTFPAVLQSSGLSLSSVVTVPSSSLGTQTYICNVNHKPSNTKVDKKVEPKSCDKTHTCPPCPAPELLGGPSVLFPPKPKDTLMISRTPEVTCVVVDVSHEDPEVKFNWYVDGVEVHNAKTKPREEQYNSTYRVVSVLTVLHQDWLNGKEYKCKVSNKALPAPIEKTISKAKGQPREPQVYTLPPSREEMTKNQVSLTCLVKGFYPSDIAVEWESNGQPENNYKTTPPVLDSDGSFLYSKLTVDKSRWQQGNVFSCSVMHEALHNHYTQKSLSLSPGK
light: B2 light
modifications: pAMF at K42 linked to LP1; pAMF at Y180, F241 and F404 (EU), each linked to LP1 (DBCO-Valcit-pAB-hemiasterlin)
cell killing EC50, HCC1954 (TF+++) [1]: 0.085 nM
cell killing EC50, HCC1954, with 0.5 uM unconjugated mAb 40 [1]: > 100 nM
cell killing EC50, NCI-H292 (TF++++) [1]: 0.044 nM
cell killing EC50, NCI-H292, with 0.5 uM unconjugated mAb 40 [1]: > 100 nM
cell killing EC50, NCI-H1975 (TF++) [1]: ~5 nM
cell killing EC50, NCI-H1975, with 0.5 uM unconjugated mAb 40 [1]: > 100 nM
cell killing Span, HCC1954 (TF+++) [1]: 93%
cell killing Span, NCI-H292 (TF++++) [1]: 86%
cell killing Span, NCI-H1975 (TF++) [1]: 71%

More lines, now with the values ahead:

FX conversion (% inhibition), 1000 nM antibody [4]: 40.8%
B10: SRP2900-H03 (antibody, IgG1, V domains shown)
VH: B8 VH with T29I, R30Y, V33I, Y60H
VL: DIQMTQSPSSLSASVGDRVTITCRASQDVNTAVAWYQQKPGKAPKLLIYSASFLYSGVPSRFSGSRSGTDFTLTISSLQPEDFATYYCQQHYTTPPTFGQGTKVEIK

FX conversion (% inhibition), 1000 nM antibody [4]: 36.3%
B11: SRP2900-H04 (antibody, IgG1, V domains shown)
VH: B8 VH with T29I, R30S, D31H, V33I, P100I, L103V, S105G, P106E
VL: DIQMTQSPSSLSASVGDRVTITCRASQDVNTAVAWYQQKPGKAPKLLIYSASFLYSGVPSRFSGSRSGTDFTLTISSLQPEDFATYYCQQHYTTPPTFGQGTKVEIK

FX conversion (% inhibition), 1000 nM antibody [4]: 36.2%
B13: SRP2900-H05 (antibody, IgG1, V domains shown)
VH: B8 VH with T29I, R30S, V33T, P100I, L103V, S105G, P106E
VL: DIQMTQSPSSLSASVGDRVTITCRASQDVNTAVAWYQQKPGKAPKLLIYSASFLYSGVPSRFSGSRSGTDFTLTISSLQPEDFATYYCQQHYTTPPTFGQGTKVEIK

FX conversion (% inhibition), 1000 nM antibody [4]: 32.2%
B14: SRP2900-H08 (antibody, IgG1, V domains shown)
VH: B8 VH with T29I, R30S, Y59F, S75P, E89K
VL: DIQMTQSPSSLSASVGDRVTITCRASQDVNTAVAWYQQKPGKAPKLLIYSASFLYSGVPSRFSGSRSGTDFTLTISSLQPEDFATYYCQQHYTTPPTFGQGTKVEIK

FX conversion (% inhibition), 1000 nM antibody [4]: 30.5%
B16: SRP2900-H01 (antibody, IgG1, V domains shown)
VH: B8 VH with T29I, R30F, V33I, L103V, S104G, P106E
VL: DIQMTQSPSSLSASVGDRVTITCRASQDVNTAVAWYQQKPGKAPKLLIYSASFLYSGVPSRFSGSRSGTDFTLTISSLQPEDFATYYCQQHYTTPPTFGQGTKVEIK

FX conversion (% inhibition), 1000 nM antibody [4]: 40.4%
B19: SRP2900-H02 (antibody, IgG1, V domains shown)
VH: B8 VH with T29I, R30F, V33I, P100I, L103V, S105G, P106E
VL: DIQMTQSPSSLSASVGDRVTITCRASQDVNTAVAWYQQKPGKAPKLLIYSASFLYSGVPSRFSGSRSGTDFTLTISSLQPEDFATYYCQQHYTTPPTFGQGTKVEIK

FX conversion (% inhibition), 1000 nM antibody [4]: 45.4%
B21: SRP2900-H10 (antibody, IgG1, V domains shown)
VH: B8 VH with T29I, R30S, Y57F, M83T, P100I, L103V, S105G, P106E
VL: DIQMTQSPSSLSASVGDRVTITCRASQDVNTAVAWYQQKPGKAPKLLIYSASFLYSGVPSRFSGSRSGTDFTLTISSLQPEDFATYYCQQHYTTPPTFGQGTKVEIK
